Measurements from the RNAGym collection of RNA variant scans (doi:10.1073/pnas.2313332121).

B1: TPR t1 (parent)
chain: GACCAAUCUGCCCUCAGAGCUCGAGAACAUCUUCGGAUGCAGAGGAGGCAGGCUUCGGUGGCGCGAUAGCGCCAACGUCCUCAACCUCCAAUGCAUCCCACCACAUGAUGAUGCCUGAAGAGCCUUGGUUUUUUG

Variants of: B1
Experiment: polymerase ribozyme fitness, log enrichment relative to wild type (log ratio); higher = more active; in vitro selection for triplet polymerase activity
Summary of the method: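 A heterodimeric triplet polymerase ribozyme had each of its subunits mutagenized by PCR into a library, which was transcribed. One round of in vitro selection, done in triplicate, annealed each library with a biotinylated primer, its partner subunit and triplets, then incubated it frozen at −7 °C before gel excision of extended constructs, streptavidin-bead capture and RT-PCR. Fitness is the logarithm of genotype enrichment relative to wild-type enrichment, based on Illumina sequencing of inputs and outputs and inverse-variance-weighted replicate averages. A base-2 logarithm is used, and genotypes were kept only with ≥10 input reads and ≥1 read per output.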

Variant | polymerase ribozyme fitness (log ratio)
A6U G19A | -2.37
U7C C20U C62A A83C A119G | -1.83
A6U C11G U112A U126A | 1.81
A6C G47A C123U U125A | -0.223
U7C A43U G52A C53U C85A U87A | -4.57
U7A C8G A16C A46U | -0.61
A6C C40U G44A A121U | 0.36
A6G C101A C115G | -1.96
A6C G17U U96G C98U C123U | -6.92
A6G C62U U129C | -0.185
A6C U78C A100U G120A U131C | -0.187
A6U C8A G71C C115A U116A A121G U131A | -2.72
A6U C11A C13G G47A G48A A74C A118G | -5.36
A6C U54G C62U U92G | -4.44
U7C G47A G69U C72A C102G | -4.77
U7A A16U C49U C124U | 1.1
U7A U9C | 0.526
U7A U55G | -0.938
A6U A24G A37U A43C A66U | -5.69
A6U C11U U55G A83U U106A G128U U130C | -1.47
A6G U7G A18C G52U U81A C115G | -4.51
A6C U9A C15G G45A C62U C104A C124G | -3.99
A6G C8A | -0.14
A6G A46C C49A C53A U55C G127U | -3.07

Variant | polymerase ribozyme fitness (log ratio)
A6U A16C C40U C70U C85G | -5.17
A6C G113A | -1.23
U7C G47A G48A A90C U112C | -1.65
A6U U9C U55C A75G A95C G110A | -1.37
A6U G44A G63C G113U | -5.44
U7C C49U A50C C99U A100U G117U | -6.3
U7A U9C G45C C70U C89A C123A | -2.15
A6U C22G U87A U92C A121U | -2.63
A6U C62A | -1.01
A6U C22A C49U C72U | -5.16
U7A C13G U32C U38G | -1.31
U7C A74C | 0.236
A6G C12A A50G G120A | 2.01
A6U G10U C12U C15G C72G C86A | -3.18
A6U C8G C34U C53U C82U A84C | -4.3
U7C U112C G113U G135A | -3.06
U7A C123G | 2.34
A6C G57A C62G G120C | -4.68
A6G A121C | 2.2
U7A G61A C73A C104G U109C | -6.61
U7A G19U C73G U92A | -4.76
U7A G57U | -0.259
U7A C8A G19U C97G A105G C124U | -7.51
U7A A74G | -0.408

Variant | polymerase ribozyme fitness (log ratio)
A6C G10A C15A G25A A43U G45C C86G U106G G113U | -7.45
A6G C11U A29G G52A C76A C85A U125G | -5.55
A6U C15A G51C G71U C124U | -5.41
A6U C12U C80U | -0.107
U7A U14G G17C C82G C102A C114G | -5.18
U7A G45U C56G A66G | -3.29
A6G G51A A75U C88G U92C | -6.38
A6U G61U | -0.0436
A6U G63C C80U G93C U106A | -3.58
A6U G42U G51A | -5.8
A6G A37U C72A C73U G117U C124A | -0.937
A6G G48U U54A C79U U87A | -4.01
A6U C53U G61C G77C C104A | -2.75
U7A G69U C98U | -0.115
A6U U78A C115G U116G | -2.95
A6C C53U A74G C80U A118G | -1.6
U7A G60U | 0.564
A6U C11U C28U C34A C73A G110A | 0.315
A6U C102A G128A | -4.03
A6G C8G U30C A41G G60U | -3.67
U7A G10C G57U C88G | -2.78
A6U C40U C123A | 0.808
A6C C88G C115G | -4.52
U7G A18U | -0.713

Variant | polymerase ribozyme fitness (log ratio)
A6U C49U C53U A84C | -0.896
U7A A66U C98U | -1.89
U7A C12A A90G | -0.303
A6G C12U | -0.282
A6C G10A U30C G71A | -5.5
U7A C73G U129G | -2.6
A6U G113U | -2.09
U7C C11G C82U | 0.131
U7C C11U G69C | -1
A6U C49G C62A U78C C88A A119U | -3.67
A6G C34A | -2.05
A6U G71U | -0.239
A6U G71A | -0.461
U7A C20U | -0.343
A6G G10U A43C G71A | -4.79
A6U A27U A46C G48A C53G C79G C82G G110C | -6.9
A6C G35U A83U C98G A121U | -4.12
A6C C53G G57A C73A C79G G113C | -4.89
A6G A41U C70U C124A | -0.611
U7A G60U C104A U125A | -1.13
A6U C20U A37U G61A | -0.862
A6C G93C A121G G127C | 0.208
A6U C76G | -0.287
A6G A18U | -1.31

Variant | polymerase ribozyme fitness (log ratio)
U7A C56G U92C | -1.74
A6U U9G G63C C104U C115U G117U | -1.31
U7C C28G G61U | -3.14
U7C G10C A83C C115U | -1.32
A6C G10C G36U | -2.24
A6C G36A A66G C72G C76U U78A | -4.1
A6U C12A G48U U106G | -1.45
U7A U32C | 0.304
A6G U7G A37G G48U | 0.0457
A6U C15A C56A A105C | -4.85
A6C C53G C72A C123U U133C | 0.968
A6C G39U G63A | -1.63
U7C C8G C79A G110A | -2.4
U7A C104G | -6.47
U7C C62U G120A G128A | 0.578
A6U C15A G113A | -4.98
A6C C73G | -0.957
A6U C53U | 0.192
A6G C56A G69U C104U | -0.478
U7A C12G C89G A111C | -2.35
U7A A16C C115A | -2.49
A6G U21C G61C C114A | -3.62
A6U C40A G60U A105C | -4.4
A6C C73G G93U G128U | -5.16

Variant | polymerase ribozyme fitness (log ratio)
U7A C22A C40G A68U A84C G110C | -6.51
A6U A18G C20U C73G U125A | -2.1
A6U C49U G60U C94G G113A | -2.65
A6G C62A | -0.491
A6U G47A C70U C94U | -1.74
A6G C11U | -0.107
A6C G47A C86U U133G | -0.584
A6U G63C C80A | -3.25
A6U C98A | -3.74
A6G U54C A66G C80U | -2.2
A6U A37U U112A U130A | 0.657
A6U C53U G69U G128C | -0.945
A6U C20U U21G G69C A121U | -0.95
A6U A18U C28U C70A C123G | -6.38
U7C A43U C72G A90G C124A U125G U133C | -0.0724
A6U G17C | -4.25
A6G G47A C53U U59C | -1.37
A6G C8A U9G | 0.0967
A6C C85U C101U G110U | -3.01
A6G G19A A43U C123A G128A | -5.55
A6C U7G A29G G48C G61A A95C | -2.21
U7A G52A A111C | 0.419
U7C C8A A27C C97U | -2.64
A6C C76G U81C C85U C99U | -5.11

Variant | polymerase ribozyme fitness (log ratio)
A6G C13A G17A A95G | -3.46
U7C C11A C22A | -5.95
A6U C80A A95U G120A U130G | -3.72
A6U U54A | -0.507
U7A G48A A50G G77A C101U U109A | -5.13
A6U C40U C56U G69C A121C | -6.3
U7A C8A C11U C34U G48U C53A C72A | -5.13
A6U C88U G128A | -2.51
A6G G48C C72A | 0.333
U7A A43U | -1.13
A6U G10C C12A U87A | -0.928
A6C U131A | -0.317
U7A C11A U81A | -1.32
U7A C56U G120U | 0.935
A6U G48C | -0.598
U7C C56U C72U U130G | -0.275
A6G C70A C97U | -1.59
A6C C62G | -2.28
A6U C12A G61A U78A C80U C86A G120A | -2.58
A6U C40G G42C C76A C94U U112C G122A | -2.22
A6G C76A C79A G120C | 0.0381
A6U G61A C79G | -1.4
A6U C40A C56G A84G C104U | -2.66
